Data as given in US20250282887A1 (Amgen, published 2025).
Changes are numbered by the printed parent chain.

T1: Human MAGEB2 (Melanoma-associated antigen B2) (human, UniProt O15479 1-319)
T1 construct: Intracellular antigen detected by IHC in FFPE material: CHO cells transfected with human MAGEB2 (mCherry vector with Myc/DDK tags, or ORF without tags)
T1 sequence: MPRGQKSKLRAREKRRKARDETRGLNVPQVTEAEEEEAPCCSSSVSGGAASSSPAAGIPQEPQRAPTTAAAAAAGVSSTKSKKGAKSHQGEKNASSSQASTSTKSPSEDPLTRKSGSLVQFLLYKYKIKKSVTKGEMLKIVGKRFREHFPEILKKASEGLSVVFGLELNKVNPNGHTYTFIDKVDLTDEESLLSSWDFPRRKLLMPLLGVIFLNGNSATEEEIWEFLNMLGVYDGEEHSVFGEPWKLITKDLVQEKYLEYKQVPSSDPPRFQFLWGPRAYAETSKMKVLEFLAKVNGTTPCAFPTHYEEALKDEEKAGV

T2: human MAGEA1 (human, UniProt P43355 1-309)
T2 construct: whole, on cells; FFPE cell pellets
T2 sequence (looked up): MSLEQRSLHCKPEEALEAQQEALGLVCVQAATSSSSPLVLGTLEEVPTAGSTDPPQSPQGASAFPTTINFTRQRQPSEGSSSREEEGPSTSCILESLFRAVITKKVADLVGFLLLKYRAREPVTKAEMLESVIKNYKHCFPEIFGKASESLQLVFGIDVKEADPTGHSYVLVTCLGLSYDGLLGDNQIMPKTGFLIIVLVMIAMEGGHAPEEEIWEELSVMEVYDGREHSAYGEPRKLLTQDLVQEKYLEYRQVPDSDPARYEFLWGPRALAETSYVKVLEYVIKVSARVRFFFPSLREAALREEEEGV

B1: 1C3 (antibody, V domains shown)
VH: QSLEESGGGLVQPEGSLTLTCTAFGVTLTNYYICWVRQAPGKGLEWVGCIDNANGRTYYASWAKGRFTISKTSSTTGTLQMTSLTAADTATYFCARSLATPLWGPGTLVTVSS
VL: DIVMTQTPSSVEAAVGGTVTIKCQASQNISSYLAWYQQKPGQPPKLLIYRASTLASGVPSRFKGSGSGTQFTLTISDLECADAATYYCQSYDDSRSSNFFYAFGGGTEVVVKG
notes: also called MAGE-B2 (IC3); anti-MAGEB2 antibody 1C3
B2: 4G17 (antibody, IgG1, V domains shown)
VH: B1 VH with F24S, T29S, V47I, A53V
VL: DIVMTQTPASVEAAVGGTVTIKCQASQNIDSYLAWYQQKPGQPPKLLIYRASTLASGVPSRFKGSGSGTEFTLTISDLECADAATYYCQSYDDSRSSSFFYGFGGGTEVVVK
notes: Rabbit monoclonal IgG1; Tested as supernatant and as small batch purified antibody; also called MAGE-B2 (4G17); anti-MAGEB2 antibody 4G17
B3: 1J15 (antibody, IgG1, V domains shown)
VH: B1 VH with V26F, T29N, V47I, G48A, G77V, A99S
VL: B2 VL with N28S, D30S, A34S, K63R, E70Q, R95S, S96D, S97N, S98N, K112R
notes: Rabbit monoclonal IgG1; Tested as supernatant and as small batch purified antibody; also called MAGE-B2 (IJ15); anti-MAGEB2 antibody 1J15
B4: 1I14 (antibody, V domains shown)
VH: QSVEESGGRLVTPGTPLTLTCTISGFSLSSYAMSWVRQAPGKGLEWIGSIGGGGSAVYASWAKGRFTISKTSTTVDLRITSPTTEDTAMYFCGRGFYSIDLWGPGTLVTVSS
VL: DVVMTQTPASVEATVGGTVTIKCQSSQSVYDNNALAWYQQNAGQRPRLLIYGASTLASGVPSRFSASGSGTEFTLTISDLECADAATYYCQCTYYVSSYQNDFGGGTEVVVKG
notes: also called MAGE-B2 (1i14)

The binders below were run against T1, Human MAGEB2 (Melanoma-associated …) (assay: IHC on FFPE T98G cells (endogenous MAGEB2)).
Procedure: (§1) FFPE samples were sectioned at 4 μm and mounted on positive charged glass slides. After mounting, paraffin sections were air-dried at room temperature. FFPE TMA samples were received as freshly sectioned and mounted on glass slides. The fully automated IHC assay was performed on a Discovery Ultra Stainer (Ventana Medical Systems, Tucson, AZ) using Ventana Anti-Rabbit HQ (cat #760-4815), Ventana Anti-HQ HRP (cat #760-4820), and Ventana Antibody Diluent with Casein (cat #760-219) (Ventana Medical Systems, Tucson, AZ). The slides were baked on the Discovery Ultra Stainer at 60° C. for 8 minutes, de-paraffinized with Ventana Discovery wash (cat #950-510) for 3 cycles (8 minutes each) at 69° C., and underwent cell conditioning (target retrieval) at 95° C. for 16 minutes (for cell arrays) or 32 minutes (tissues or TMAs) in CC1 buffer (cat #950-500). Following this, slides were incubated with Background Sniper (cat #BS966M, Biocare Medical, Pacheco, CA) in a Ventana Option Prep kit (cat #771-751) for 28 minutes, incubated with CM inhibitor (a part of the Ventana DAB kit cat #760-159) for 12 minutes, and incubated for 1 h at RT with MAGE-B2 antibody diluted with Ventana diluent with Casein in a Ventana Prep kit (cat #770-001) (working concentration at 0.1 μg/ml for cell pellet, or 1-5 ug/ml for tissues) or with a matched concentration of isotype control Rabbit IgG1 antibody. Following this, slides were incubated with the Ventana Anti-Rabbit HQ (cat #760-4815) for 28 minutes at RT, Ventana Anti-HQ HRP (cat #760-4820) for 28 minutes at RT, and signals detected with Ventana DAB chromogen kit (cat #760-159) for 5 minutes at RT. Slides were counterstained with Ventana Hematoxylin II (cat #5266726001) for 8 minutes and Ventana Bluing reagent (cat #526676900) for 4 minutes. Slides were coverslipped and digitized using an Aperio AT2 scanner (Leica Biosystems Inc, Buffalo Grove, IL).
For B1, the “IHC % Frequency” value was 70% and the “IHC Intensity” value was 2.
B2 was tested, and the “IHC % Frequency” value was 70% and the “IHC Intensity” value was 2.
With B3 the “IHC % Frequency” value was 70% and the “IHC Intensity” value was 1.
B4 was tested, and the “IHC % Frequency” value was 70% and the “IHC Intensity” value was 2.

These binders were tested against T2, human MAGEA1 (assay: IHC, FFPE CHO cells transfected with human MAGEA1).
Procedure: as §1
B1: no binding (tested: 0.1 µg/ml).
B2: no binding (tested: 0.1 µg/ml).
B3: no binding (tested: 0.1 µg/ml).
B4: no binding (tested: 0.1 µg/ml).

The binders below were run against T3, human MAGEA6 (human, UniProt P43360 1-314) (assay: IHC, FFPE CHO cells transfected with human MAGEA6).
T3 construct: whole, on cells; FFPE cell pellets
T3 sequence (P43360 whole entry): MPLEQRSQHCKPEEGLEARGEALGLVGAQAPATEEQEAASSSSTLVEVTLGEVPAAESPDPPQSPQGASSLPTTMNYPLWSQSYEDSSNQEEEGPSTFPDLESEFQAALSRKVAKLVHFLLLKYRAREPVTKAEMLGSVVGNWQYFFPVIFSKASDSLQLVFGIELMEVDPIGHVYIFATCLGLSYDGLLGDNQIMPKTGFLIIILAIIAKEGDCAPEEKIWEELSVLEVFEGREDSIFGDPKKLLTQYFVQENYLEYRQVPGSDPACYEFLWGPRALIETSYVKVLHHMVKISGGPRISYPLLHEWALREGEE
Procedure: as §1
B1: no binding (tested: 0.1 µg/ml).
B2: no binding (tested: 0.1 µg/ml).
B3: no binding (tested: 0.1 µg/ml).
B4: no binding (tested: 0.1 µg/ml).
